These results are taken from patent US20170355765A1 (published 2017).

The target in this test is T1, human TEM8 expressed on CHO or HEK 293 cells (human, UniProt Q9H6X2 33-564).
T1 construct: also called hTEM8; CHO TEM8
Kind of test: binding to CHO cells expressing human TEM8.

T1 sequence (Q9H6X2 33-564 limits assumed): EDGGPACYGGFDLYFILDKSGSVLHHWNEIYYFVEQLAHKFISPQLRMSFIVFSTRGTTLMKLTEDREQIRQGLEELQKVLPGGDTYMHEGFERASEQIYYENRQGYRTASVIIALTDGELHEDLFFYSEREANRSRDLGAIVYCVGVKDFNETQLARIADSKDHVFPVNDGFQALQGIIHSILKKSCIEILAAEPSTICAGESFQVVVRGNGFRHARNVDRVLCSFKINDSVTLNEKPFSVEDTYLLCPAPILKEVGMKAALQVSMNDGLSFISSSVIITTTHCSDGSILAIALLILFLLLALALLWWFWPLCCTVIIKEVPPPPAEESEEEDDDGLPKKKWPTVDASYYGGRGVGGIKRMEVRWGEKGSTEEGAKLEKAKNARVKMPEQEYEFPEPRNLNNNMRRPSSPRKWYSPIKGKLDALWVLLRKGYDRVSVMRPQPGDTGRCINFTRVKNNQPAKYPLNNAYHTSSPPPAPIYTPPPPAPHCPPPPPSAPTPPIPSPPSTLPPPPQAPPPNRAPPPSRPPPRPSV

B1: antibody drug conjugate including the m825 antibody (in human IgG1 format) conjugated to MMAE (other)
VH: QVQLVQSGAEVKKPGTSVKVSCKVPGYTFSSYAISWVRQAPGQGLEWMGGIIPIFGTTNYAQKFQGRVTITGEESTSTVYMELSSLRSEDTAVYYCARDTDYMFDYWGQGTLVTVSS
VL: SSELTQDPVVSVALGETVSITCQGDNLRDFYASWYQQKPGQAPLLVMYGKNRRPSGIPDRFSGSTSGNTLSLTITGAQAEDEADYYCSSRDNSKHVVFGGGTKVTVL
modifications: MMAE toxin with stretcher unit, Val-Cit peptide cleavage site and spacer, linked to thiol groups formed by partial reduction of inter-chain disulfide bonds (positions not stated)
notes: also called m825-MMAE; m825-MMAE conjugate
Turning to B1, the binding result is “binds”.
